The source of these data is publication PMC7461574.

The target in the assay is non-glycosylated wild-type PAI-1 (PAI-1-wt) (human) (UniProt P05121).
UniProt P05121, sequence (P05121 24-402): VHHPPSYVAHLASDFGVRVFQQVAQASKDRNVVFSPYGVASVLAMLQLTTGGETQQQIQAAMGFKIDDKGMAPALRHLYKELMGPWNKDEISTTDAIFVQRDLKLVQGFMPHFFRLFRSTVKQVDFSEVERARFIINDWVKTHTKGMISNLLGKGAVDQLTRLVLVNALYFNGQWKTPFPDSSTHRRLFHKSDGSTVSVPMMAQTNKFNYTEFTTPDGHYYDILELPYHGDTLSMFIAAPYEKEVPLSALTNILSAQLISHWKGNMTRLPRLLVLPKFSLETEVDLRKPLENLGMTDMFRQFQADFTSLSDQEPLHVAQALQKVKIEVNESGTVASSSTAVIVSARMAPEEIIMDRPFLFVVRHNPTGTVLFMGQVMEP

B1: VHH-s-a93 (Nb93) (VHH)
VHH: QVQLVESGGGLVQPGGSLRLSCAASGFSLDNYAIGWFRQAPGKEREGVSCISSSDGSTYYTDSVEGRFTISRDNAKNTVYLQMNSLKPDDTAVYYCAADYGSSWCTFNGMDYWGQGTQVTVSS
B1 returned an IC50 of inhibition of PAI-1-wt activity, chromogenic plasminogen-coupled assay with tPA (residual tPA activity; pair blocked: PAI-1/tPA), Nb93 1 to 512 nM of 202 nM and a maximum inhibition of PAI-1-wt activity, chromogenic plasminogen-coupled assay with tPA (pair blocked: PAI-1/tPA), Nb93 1 to 512 nM of 55%.
